# Reference: paper PMC7162537
# Target: BRCA1 (UniProt P38398)
# Assay: anti-HA co-IP from nuclear extract, blot
# Conditions: reference: wild type FANCJ; sites S990
substance,measurement,value
FANCJ (from UniProt Q9BX63) S990A,binding against the reference,lost
